Data on 4 molecules can be found in paper PMC5563082 (2017).

Assay in all cases: SPR
Experiment [1] has as its target T1, human NL4_(ECTO) (NL4(X); Gln42-Glu602), immobilised for SPR (human, UniProt Q8N0W4-1 42-602, biotin on the Avitag (in vivo biotinylation by BirA)).
T1 chain: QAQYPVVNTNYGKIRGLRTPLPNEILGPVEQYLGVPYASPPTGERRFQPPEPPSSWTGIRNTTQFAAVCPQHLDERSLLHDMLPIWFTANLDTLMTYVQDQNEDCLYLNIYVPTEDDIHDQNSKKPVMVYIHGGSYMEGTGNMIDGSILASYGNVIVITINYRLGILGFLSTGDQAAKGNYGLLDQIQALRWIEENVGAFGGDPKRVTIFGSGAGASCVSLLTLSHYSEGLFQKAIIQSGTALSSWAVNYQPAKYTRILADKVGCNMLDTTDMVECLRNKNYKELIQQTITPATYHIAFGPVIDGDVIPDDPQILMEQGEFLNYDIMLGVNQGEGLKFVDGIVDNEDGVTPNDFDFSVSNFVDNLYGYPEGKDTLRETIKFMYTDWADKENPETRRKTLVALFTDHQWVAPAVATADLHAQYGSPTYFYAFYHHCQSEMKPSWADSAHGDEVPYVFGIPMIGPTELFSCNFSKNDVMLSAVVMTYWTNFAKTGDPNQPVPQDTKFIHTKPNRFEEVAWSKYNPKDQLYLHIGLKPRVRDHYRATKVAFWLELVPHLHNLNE

Experiment [2] addresses human NL2(–A)_(ECTO) (Glu38-His612), immobilised for SPR (human, UniProt Q8NFZ4 38-612, –A: GPLTKKRDEATLNPPDT between Asp152 and Asp170 absent, biotin on the Avitag (in vivo biotinylation by BirA)).
Experiment [3] concerns the target T2, human NL5_(ECTO) (NL4(Y); Gln42-Glu602), immobilised for SPR (human, UniProt Q8NFZ3-1 42-602, biotin on the Avitag (in vivo biotinylation by BirA)).
T2 chain: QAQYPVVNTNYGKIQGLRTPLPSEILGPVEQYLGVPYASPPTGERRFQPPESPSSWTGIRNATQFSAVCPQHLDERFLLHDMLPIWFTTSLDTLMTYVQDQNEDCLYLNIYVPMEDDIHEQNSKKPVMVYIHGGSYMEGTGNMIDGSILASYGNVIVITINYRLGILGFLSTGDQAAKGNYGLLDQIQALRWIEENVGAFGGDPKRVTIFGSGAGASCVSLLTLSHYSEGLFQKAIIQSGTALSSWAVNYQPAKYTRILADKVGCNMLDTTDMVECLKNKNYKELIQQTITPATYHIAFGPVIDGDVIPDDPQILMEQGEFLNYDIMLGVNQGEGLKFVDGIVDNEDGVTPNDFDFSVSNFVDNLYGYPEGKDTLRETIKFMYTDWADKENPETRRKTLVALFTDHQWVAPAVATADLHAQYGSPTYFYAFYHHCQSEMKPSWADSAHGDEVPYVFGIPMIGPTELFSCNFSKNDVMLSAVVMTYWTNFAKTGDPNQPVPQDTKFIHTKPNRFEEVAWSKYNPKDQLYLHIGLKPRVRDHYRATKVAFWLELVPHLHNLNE

In experiment [4] the target is human NL3(–A)_(ECTO) (Gln38-Asp636), immobilised for SPR (human, UniProt Q9NZ94-1 38-636, –A: nothing between Asp152 and Asp193, biotin on the Avitag (in vivo biotinylation by BirA)).
The target in experiment [5] is T3, human NL1(+A1–B)_(ECTO), immobilised for SPR (human, biotin on the Avitag (in vivo biotinylation by BirA)).
T3 chain: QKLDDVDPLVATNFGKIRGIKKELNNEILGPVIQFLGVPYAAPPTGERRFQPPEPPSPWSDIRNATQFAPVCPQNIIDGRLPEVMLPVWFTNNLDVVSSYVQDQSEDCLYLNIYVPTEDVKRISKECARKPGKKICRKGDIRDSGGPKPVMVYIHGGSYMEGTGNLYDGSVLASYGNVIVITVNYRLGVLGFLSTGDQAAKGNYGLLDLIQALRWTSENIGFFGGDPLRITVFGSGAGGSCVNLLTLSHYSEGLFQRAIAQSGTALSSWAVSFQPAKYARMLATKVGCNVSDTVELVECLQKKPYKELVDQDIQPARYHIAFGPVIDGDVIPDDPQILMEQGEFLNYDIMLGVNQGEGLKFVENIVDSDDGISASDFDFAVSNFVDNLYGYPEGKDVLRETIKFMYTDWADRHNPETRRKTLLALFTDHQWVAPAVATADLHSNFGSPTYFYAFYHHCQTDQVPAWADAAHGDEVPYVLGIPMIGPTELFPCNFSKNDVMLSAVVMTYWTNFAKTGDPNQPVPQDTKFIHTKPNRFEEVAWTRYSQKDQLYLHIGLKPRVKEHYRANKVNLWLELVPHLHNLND

For experiment [6], the target named is T4, human NL1(–A–B)_(ECTO), biotinylated and immobilised for SPR (human, biotin on the Avitag (in vivo biotinylation by BirA)).
T4 chain: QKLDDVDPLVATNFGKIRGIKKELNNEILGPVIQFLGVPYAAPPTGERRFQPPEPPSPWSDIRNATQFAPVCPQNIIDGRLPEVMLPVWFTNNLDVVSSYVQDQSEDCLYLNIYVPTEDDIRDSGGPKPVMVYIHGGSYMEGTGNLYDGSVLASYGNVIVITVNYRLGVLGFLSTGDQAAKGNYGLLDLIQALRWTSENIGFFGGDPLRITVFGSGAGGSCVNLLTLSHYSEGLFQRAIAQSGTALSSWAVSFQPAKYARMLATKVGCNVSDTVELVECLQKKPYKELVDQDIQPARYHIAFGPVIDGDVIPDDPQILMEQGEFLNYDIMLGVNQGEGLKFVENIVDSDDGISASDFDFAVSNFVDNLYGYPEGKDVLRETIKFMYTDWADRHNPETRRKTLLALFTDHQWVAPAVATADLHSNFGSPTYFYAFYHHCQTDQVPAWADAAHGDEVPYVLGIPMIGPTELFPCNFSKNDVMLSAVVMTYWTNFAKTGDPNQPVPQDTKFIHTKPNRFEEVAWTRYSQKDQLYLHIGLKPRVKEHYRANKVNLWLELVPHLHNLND

Chain of human NL3(–A)_(ECTO) (Gln38-Asp636), immobilised for SPR (Q9NZ94 other isoform, or with tags, fused parts or gaps –A: nothing between Asp152 and Asp193): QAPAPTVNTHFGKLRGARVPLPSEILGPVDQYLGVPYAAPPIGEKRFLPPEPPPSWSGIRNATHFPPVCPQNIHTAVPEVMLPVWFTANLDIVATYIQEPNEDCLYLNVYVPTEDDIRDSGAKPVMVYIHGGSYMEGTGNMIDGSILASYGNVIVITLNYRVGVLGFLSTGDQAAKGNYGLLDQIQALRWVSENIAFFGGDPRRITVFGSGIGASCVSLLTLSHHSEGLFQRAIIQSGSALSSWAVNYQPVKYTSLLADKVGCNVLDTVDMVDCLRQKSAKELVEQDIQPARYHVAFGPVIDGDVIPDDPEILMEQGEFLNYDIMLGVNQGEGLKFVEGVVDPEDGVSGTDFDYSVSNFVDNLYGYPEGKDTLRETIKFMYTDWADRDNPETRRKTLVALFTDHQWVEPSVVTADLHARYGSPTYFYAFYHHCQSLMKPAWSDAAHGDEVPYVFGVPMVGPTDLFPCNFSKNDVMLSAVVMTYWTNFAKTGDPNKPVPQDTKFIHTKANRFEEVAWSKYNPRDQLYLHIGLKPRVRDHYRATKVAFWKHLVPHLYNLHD
Chain of human NL2(–A)_(ECTO) (Glu38-His612), immobilised for SPR (Q8NFZ4 other isoform, or with tags, fused parts or gaps with the stated changes): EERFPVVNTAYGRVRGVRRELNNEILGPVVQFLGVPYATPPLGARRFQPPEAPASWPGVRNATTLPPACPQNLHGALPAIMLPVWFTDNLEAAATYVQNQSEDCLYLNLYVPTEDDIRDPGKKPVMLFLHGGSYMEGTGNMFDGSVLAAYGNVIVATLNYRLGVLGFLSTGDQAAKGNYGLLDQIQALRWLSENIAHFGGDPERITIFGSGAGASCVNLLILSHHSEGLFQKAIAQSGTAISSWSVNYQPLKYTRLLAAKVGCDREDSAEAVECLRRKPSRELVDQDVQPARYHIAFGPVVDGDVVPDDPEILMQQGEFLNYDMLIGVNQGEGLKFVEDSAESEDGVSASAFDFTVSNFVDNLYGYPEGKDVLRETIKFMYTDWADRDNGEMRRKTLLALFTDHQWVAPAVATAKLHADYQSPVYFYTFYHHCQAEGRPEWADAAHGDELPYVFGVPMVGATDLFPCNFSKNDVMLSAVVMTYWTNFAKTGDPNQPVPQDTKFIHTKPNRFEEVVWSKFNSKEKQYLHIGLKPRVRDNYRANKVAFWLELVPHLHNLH

B1: human MDGA2 extracellular domain (MDGA2_(ECTO); Gln21-Lys927) (domain or fragment)
chain: QGVYAPPTVRIVHSGLACNIEEERYSERVYTIREGETLELTCLVTGHPRPQIRWTKTAGSASDRFQDSSVFNETLRITNIQRHQGGRYYCKAENGLGSPAIKSIRVDVYYLDDPVVTVHQSIGEAKEQFYYERTVFLRCVANSNPPVRYSWRRGQEVLLQGSDKGVEIYEPFFTQGETKILKLKNLRPQDYANYSCIASVRNVCNIPDKMVSFRLSNKTASPSIKLLVDDPIVVNPGEAITLVCVTTGGEPAPSLTWVRSFGTLPEKTVLNGGTLTIPAITSDDAGTYSCIANNNVGNPAKKSTNIIVRALKKGRFWITPDPYHKDDNIQIGREVKISCQVEAVPSEELTFSWFKNGRPLRSSERMVITQTDPDVSPGTTNLDIIDLKFTDFGTYTCVASLKGGGISDISIDVNISSSTVPPNLTVPQEKSPLVTREGDTIELQCQVTGKPKPIILWSRADKEVAMPDGSMQMESYDGTLRIVNVSREMSGMYRCQTSQYNGFNVKPREALVQLIVQYPPAVEPAFLEIRQGQDRSVTMSCRVLRAYPIRVLTYEWRLGNKLLRTGQFDSQEYTEYAVKSLSNENYGVYNCSIINEAGAGRCSFLVTGKAYAPEFYYDTYNPVWQNRHRVYSYSLQWTQMNPDAVDRIVAYRLGIRQAGQQRWWEQEIKINGNIQKGELITYNLTELIKPEAYEVRLTPLTKFGEGDSTIRVIKYSAPVNPHLREFHCGFEDGNICLFTQDDTDNFDWTKQSTATRNTKYTPNTGPNADRSGSKEGFYMYIETSRPRLEGEKARLLSPVFSIAPKNPYGPTNTAYCFSFFYHMYGQHIGVLNVYLRLKGQTTIENPLWSSSGNKGQRWNEAHVNIYPITSFQLIFEGIRGPGIEGDIAIDDVSIAEGECAKQDLATK
Broadly, the Kd is the concentration at which binding is half-saturated. Read a high Kd as weaker binding. Consider B1, for which the Kd in experiment [1] is 14.4 µM; in experiment [2], 768 nM; in experiment [3], 21.9 µM; in experiment [4], 27.6 µM; in experiment [5], 1200 nM; in experiment [6] it was 1690 nM.

B2: human β-neurexin-1 LNS6 domain lacking SS4 (β-NRX1_(LNS6)(–4); His85-Val265) (domain or fragment)
chain: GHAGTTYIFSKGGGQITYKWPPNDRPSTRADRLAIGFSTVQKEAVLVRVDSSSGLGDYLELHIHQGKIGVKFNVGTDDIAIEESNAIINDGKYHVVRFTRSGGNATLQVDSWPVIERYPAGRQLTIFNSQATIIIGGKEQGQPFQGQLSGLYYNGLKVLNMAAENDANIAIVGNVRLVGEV
Regarding B2, the Kd in experiment [1] came out at 2.49 µM; in experiment [2], 699 nM; in experiment [3] it was 3.16 µM; in experiment [5], 766 nM; in experiment [6], 640 nM.

B3: human MDGA1 extracellular domain (MDGA1_(ECTO); Gln19-Lys925) (domain or fragment)
chain: QGVYAPAQAQIVHAGQACVVKEDNISERVYTIREGDTLMLQCLVTGHPRPQVRWTKTAGSASDKFQETSVFNETLRIERIARTQGGRYYCKAENGVGVPAIKSIRVDVQYLDEPMLTVHQTVSDVRGNFYQEKTVFLRCTVNSNPPARFIWKRGSDTLSHSQDNGVDIYEPLYTQGETKVLKLKNLRPQDYASYTCQVSVRNVCGIPDKAITFRLTNTTAPPALKLSVNETLVVNPGENVTVQCLLTGGDPLPQLQWSHGPGPLPLGALAQGGTLSIPSVQARDSGYYNCTATNNVGNPAKKTVNLLVRSMKNATFQITPDVIKESENIQLGQDLKLSCHVDAVPQEKVTYQWFKNGKPARMSKRLLVTRNDPELPAVTSSLELIDLHFSDYGTYLCMASFPGAPVPDLSVEVNISSETVPPTISVPKGRAVVTVREGSPAELQCEVRGKPRPPVLWSRVDKEAALLPSGLPLEETPDGKLRLERVSRDMSGTYRCQTARYNGFNVRPREAQVQLNVQFPPEVEPSSQDVRQALGRPVLLRCSLLRGSPQRIASAVWRFKGQLLPPPPVVPAAAEAPDHAELRLDAVTRDSSGSYECSVSNDVGSAACLFQVSAKAYSPEFYFDTPNPTRSHKLSKNYSYVLQWTQREPDAVDPVLNYRLSIRQLNQHNAVVKAIPVRRVEKGQLLEYILTDLRVPHSYEVRLTPYTTFGAGDMASRIIHYTEPINSPNLSDNTCHFEDEKICGYTQDLTDNFDWTRQNALTQNPKRSPNTGPPTDISGTPEGYYMFIETSRPRELGDRARLVSPLYNASAKFYCVSFFYHMYGKHIGSLNLLVRSRNKGALDTHAWSLSGNKGNVWQQAHVPISPSGPFQIIFEGVRGPGYLGDIAIDDVTLKKGECPRKQTDPNK
Consider B3, for which the Kd in experiment [1] stood at 14.7 µM; in experiment [3] it was 23.2 µM; in experiment [4], 14.6 µM; in experiment [5], 2080 nM; in experiment [6] it was 3620 nM.

B4: human β-neurexin-1 LNS6 domain with SS4 (β-NRX1_(LNS6)(+4)) (domain or fragment)
chain: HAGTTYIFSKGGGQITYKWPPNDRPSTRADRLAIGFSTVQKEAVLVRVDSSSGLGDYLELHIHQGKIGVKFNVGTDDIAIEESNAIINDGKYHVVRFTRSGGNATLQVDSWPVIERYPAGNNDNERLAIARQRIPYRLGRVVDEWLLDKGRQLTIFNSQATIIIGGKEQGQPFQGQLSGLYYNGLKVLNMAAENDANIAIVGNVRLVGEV
As for B4, the equilibrium dissociation constant (Kd) in experiment [1] is 9.66 µM; in experiment [2], 4000 nM; in experiment [3] it was 14.2 µM; in experiment [4], 22.1 µM; in experiment [5], 2820 nM; in experiment [6], 2630 nM.
